Reference: IntAct's records for PubMed 19955409

Molecular target: rdx, Q9VFP2-2
Sequence (Q9VFP2 456-829): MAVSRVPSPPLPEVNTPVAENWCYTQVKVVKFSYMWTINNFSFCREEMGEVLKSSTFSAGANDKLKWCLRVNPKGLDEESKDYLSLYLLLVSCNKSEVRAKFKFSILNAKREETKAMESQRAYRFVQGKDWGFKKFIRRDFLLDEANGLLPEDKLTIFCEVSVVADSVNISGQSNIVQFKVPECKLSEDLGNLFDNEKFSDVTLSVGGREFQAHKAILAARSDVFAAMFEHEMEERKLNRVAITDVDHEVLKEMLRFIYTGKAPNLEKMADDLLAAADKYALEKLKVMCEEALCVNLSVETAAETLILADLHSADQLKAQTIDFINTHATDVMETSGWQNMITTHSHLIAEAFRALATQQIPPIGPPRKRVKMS

Substance | effect of a mutation on the interaction
Transcriptional activator cubitus interruptus (Drosophila melanogaster (Fruit fly)), P19538 E369A | disrupting interaction strength
Transcriptional activator cubitus interruptus (Drosophila melanogaster (Fruit fly)), P19538 S372A | disrupting interaction strength
Transcriptional activator cubitus interruptus (Drosophila melanogaster (Fruit fly)), P19538 S373A | disrupting interaction strength
Transcriptional activator cubitus interruptus (Drosophila melanogaster (Fruit fly)), P19538 S373D | disrupting interaction strength
Transcriptional activator cubitus interruptus (Drosophila melanogaster (Fruit fly)), P19538 S375A | disrupting interaction strength
Transcriptional activator cubitus interruptus (Drosophila melanogaster (Fruit fly)), P19538 S375D | disrupting interaction strength
Transcriptional activator cubitus interruptus (Drosophila melanogaster (Fruit fly)), P19538 T374A | disrupting interaction strength
Transcriptional activator cubitus interruptus (Drosophila melanogaster (Fruit fly)), P19538 T374D | disrupting interaction strength
